Experimental data: patent US9284543B2, “Neutral active soluble truncated PH20 polypeptides and uses thereof” (Halozyme, Inc., priority 2008, dated 2016)

How the values were obtained:
CHO-S cells = assay: Western blot analysis of PH20 expression in media and cells after transient expression; format: cell-based, Chinese Hamster; conditions: media versus cells
How it was run: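 PH20 expression and solubility were judged by anti-PH20 Western blot of non-reduced media and cell fractions, with expression shown by a ~66 kDa band. Samples came from CHO-S cells transiently transfected (GeneJuice) with mutant PH20-HZ24 DNA and cultured 48-72 h. GPI-anchored mutants were cleaved with PI-PLC to release soluble protein.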

[1] = Microtiter hyaluronidase activity assay with biotinylated-hyaluronic acid; format: biochemical; conditions: Table 6, 72 hour post transfection supernatant

Row | Molecule | Expressed in Media (CHO-S cells) | pH 5.5 Activity [1] [Units/ml] | pH 7.4 Activity [1] [Units/ml]
1 | SPAM1-PMET: C-terminally truncated human PH20, precursor 475 aa (SEQ ID NO:25), mature 440 aa (SEQ ID NO:77) (protein, listed as Homo sapiens, HuPH20 precursor 1-475; Mature HuPH20 36-475) chain 1: MGVLKFKHIFFRSFVKSSGVSQIVFTFLLIPCCLTLNFRAPPVIPNVPFLWAWNAPSEFCLGKFDEPLDMSLFSFIGSPRINATGQGVTIFYVDRLGYYPYIDSITGVTVNGGIPQKISLQDHLDKAKKDITFYMPVDNLGMAVIDWEEWRPTWARNWKPKDVYKNRSIELVQQQNVQLSLTEATEKAKQEFEKAGKDFLVETIKLGKLLRPNHLWGYYLFPDCYNHHYKKPGYNGSCFNVEIKRNDDLSWLWNESTALYPSIYLNTQQSPVAATLYVRNRVREAIRVSKIPDAKSPLPVFAYTRIVFTDQVLKFLSQDELVYTFGETVALGASGIVIWGTLSIMRSMKSCLLLDNYMETILNPYIINVTLAAKMCSQVLCQEQGVCIRKNWNSSDYLHLNPDNFAIQLEKGGKFTVRGKPTLEDLEQFSEKFYCSCYSTLSCKEKADVKDTDAVDVCIADGVCIDAFLKPPMET chain 2: LNFRAPPVIPNVPFLWAWNAPSEFCLGKFDEPLDMSLFSFIGSPRINATGQGVTIFYVDRLGYYPYIDSITGVTVNGGIPQKISLQDHLDKAKKDITFYMPVDNLGMAVIDWEEWRPTWARNWKPKDVYKNRSIELVQQQNVQLSLTEATEKAKQEFEKAGKDFLVETIKLGKLLRPNHLWGYYLFPDCYNHHYKKPGYNGSCFNVEIKRNDDLSWLWNESTALYPSIYLNTQQSPVAATLYVRNRVREAIRVSKIPDAKSPLPVFAYTRIVFTDQVLKFLSQDELVYTFGETVALGASGIVIWGTLSIMRSMKSCLLLDNYMETILNPYIINVTLAAKMCSQVLCQEQGVCIRKNWNSSDYLHLNPDNFAIQLEKGGKFTVRGKPTLEDLEQFSEKFYCSCYSTLSCKEKADVKDTDAVDVCIADGVCIDAFLKPPMET | YES | 2.0925 | 2.223
2 | SPAM1-LKPP: C-terminally truncated human PH20, precursor 472 aa (SEQ ID NO:28), mature 437 aa (SEQ ID NO:80) (protein, listed as Homo sapiens, HuPH20 precursor 1-472; Mature HuPH20 36-472) chain 1: MGVLKFKHIFFRSFVKSSGVSQIVFTFLLIPCCLTLNFRAPPVIPNVPFLWAWNAPSEFCLGKFDEPLDMSLFSFIGSPRINATGQGVTIFYVDRLGYYPYIDSITGVTVNGGIPQKISLQDHLDKAKKDITFYMPVDNLGMAVIDWEEWRPTWARNWKPKDVYKNRSIELVQQQNVQLSLTEATEKAKQEFEKAGKDFLVETIKLGKLLRPNHLWGYYLFPDCYNHHYKKPGYNGSCFNVEIKRNDDLSWLWNESTALYPSIYLNTQQSPVAATLYVRNRVREAIRVSKIPDAKSPLPVFAYTRIVFTDQVLKFLSQDELVYTFGETVALGASGIVIWGTLSIMRSMKSCLLLDNYMETILNPYIINVTLAAKMCSQVLCQEQGVCIRKNWNSSDYLHLNPDNFAIQLEKGGKFTVRGKPTLEDLEQFSEKFYCSCYSTLSCKEKADVKDTDAVDVCIADGVCIDAFLKPP chain 2: LNFRAPPVIPNVPFLWAWNAPSEFCLGKFDEPLDMSLFSFIGSPRINATGQGVTIFYVDRLGYYPYIDSITGVTVNGGIPQKISLQDHLDKAKKDITFYMPVDNLGMAVIDWEEWRPTWARNWKPKDVYKNRSIELVQQQNVQLSLTEATEKAKQEFEKAGKDFLVETIKLGKLLRPNHLWGYYLFPDCYNHHYKKPGYNGSCFNVEIKRNDDLSWLWNESTALYPSIYLNTQQSPVAATLYVRNRVREAIRVSKIPDAKSPLPVFAYTRIVFTDQVLKFLSQDELVYTFGETVALGASGIVIWGTLSIMRSMKSCLLLDNYMETILNPYIINVTLAAKMCSQVLCQEQGVCIRKNWNSSDYLHLNPDNFAIQLEKGGKFTVRGKPTLEDLEQFSEKFYCSCYSTLSCKEKADVKDTDAVDVCIADGVCIDAFLKPP | YES | 0.9 | 0.5445
3 | SPAM1-KPPM: C-terminally truncated human PH20, precursor 473 aa (SEQ ID NO:27), mature 438 aa (SEQ ID NO:79) (protein, listed as Homo sapiens, HuPH20 precursor 1-473; Mature HuPH20 36-473) chain 1: MGVLKFKHIFFRSFVKSSGVSQIVFTFLLIPCCLTLNFRAPPVIPNVPFLWAWNAPSEFCLGKFDEPLDMSLFSFIGSPRINATGQGVTIFYVDRLGYYPYIDSITGVTVNGGIPQKISLQDHLDKAKKDITFYMPVDNLGMAVIDWEEWRPTWARNWKPKDVYKNRSIELVQQQNVQLSLTEATEKAKQEFEKAGKDFLVETIKLGKLLRPNHLWGYYLFPDCYNHHYKKPGYNGSCFNVEIKRNDDLSWLWNESTALYPSIYLNTQQSPVAATLYVRNRVREAIRVSKIPDAKSPLPVFAYTRIVFTDQVLKFLSQDELVYTFGETVALGASGIVIWGTLSIMRSMKSCLLLDNYMETILNPYIINVTLAAKMCSQVLCQEQGVCIRKNWNSSDYLHLNPDNFAIQLEKGGKFTVRGKPTLEDLEQFSEKFYCSCYSTLSCKEKADVKDTDAVDVCIADGVCIDAFLKPPM chain 2: LNFRAPPVIPNVPFLWAWNAPSEFCLGKFDEPLDMSLFSFIGSPRINATGQGVTIFYVDRLGYYPYIDSITGVTVNGGIPQKISLQDHLDKAKKDITFYMPVDNLGMAVIDWEEWRPTWARNWKPKDVYKNRSIELVQQQNVQLSLTEATEKAKQEFEKAGKDFLVETIKLGKLLRPNHLWGYYLFPDCYNHHYKKPGYNGSCFNVEIKRNDDLSWLWNESTALYPSIYLNTQQSPVAATLYVRNRVREAIRVSKIPDAKSPLPVFAYTRIVFTDQVLKFLSQDELVYTFGETVALGASGIVIWGTLSIMRSMKSCLLLDNYMETILNPYIINVTLAAKMCSQVLCQEQGVCIRKNWNSSDYLHLNPDNFAIQLEKGGKFTVRGKPTLEDLEQFSEKFYCSCYSTLSCKEKADVKDTDAVDVCIADGVCIDAFLKPPM | YES | 0.9157 | 0.8595
4 | SPAM1-PPME: C-terminally truncated human PH20, precursor 474 aa (SEQ ID NO:26), mature 439 aa (SEQ ID NO:78) (protein, listed as Homo sapiens, HuPH20 precursor 1-474; Mature HuPH20 36-474) chain 1: MGVLKFKHIFFRSFVKSSGVSQIVFTFLLIPCCLTLNFRAPPVIPNVPFLWAWNAPSEFCLGKFDEPLDMSLFSFIGSPRINATGQGVTIFYVDRLGYYPYIDSITGVTVNGGIPQKISLQDHLDKAKKDITFYMPVDNLGMAVIDWEEWRPTWARNWKPKDVYKNRSIELVQQQNVQLSLTEATEKAKQEFEKAGKDFLVETIKLGKLLRPNHLWGYYLFPDCYNHHYKKPGYNGSCFNVEIKRNDDLSWLWNESTALYPSIYLNTQQSPVAATLYVRNRVREAIRVSKIPDAKSPLPVFAYTRIVFTDQVLKFLSQDELVYTFGETVALGASGIVIWGTLSIMRSMKSCLLLDNYMETILNPYIINVTLAAKMCSQVLCQEQGVCIRKNWNSSDYLHLNPDNFAIQLEKGGKFTVRGKPTLEDLEQFSEKFYCSCYSTLSCKEKADVKDTDAVDVCIADGVCIDAFLKPPME chain 2: LNFRAPPVIPNVPFLWAWNAPSEFCLGKFDEPLDMSLFSFIGSPRINATGQGVTIFYVDRLGYYPYIDSITGVTVNGGIPQKISLQDHLDKAKKDITFYMPVDNLGMAVIDWEEWRPTWARNWKPKDVYKNRSIELVQQQNVQLSLTEATEKAKQEFEKAGKDFLVETIKLGKLLRPNHLWGYYLFPDCYNHHYKKPGYNGSCFNVEIKRNDDLSWLWNESTALYPSIYLNTQQSPVAATLYVRNRVREAIRVSKIPDAKSPLPVFAYTRIVFTDQVLKFLSQDELVYTFGETVALGASGIVIWGTLSIMRSMKSCLLLDNYMETILNPYIINVTLAAKMCSQVLCQEQGVCIRKNWNSSDYLHLNPDNFAIQLEKGGKFTVRGKPTLEDLEQFSEKFYCSCYSTLSCKEKADVKDTDAVDVCIADGVCIDAFLKPPME | YES | 1.341 | 1.2105
